Assay results taken from patent US20130028888A1 (AERES BIOMEDICAL, published 2013).

Assays:
[1] = target: T1, human CD22 expressed on the cell surface (human, UniProt P20273 20-847); assay: cell ELISA on BHK cells expressing human CD22, OD 655 nm
T1 construct: whole, on cells; One entry covers all cell-surface formats (BHK-CD22, CHO, COS, Daudi, human B cells); also called hCD22; BHK-CD22

[2] = target: T1, human CD22 expressed on the cell surface; assay: cell ELISA on BHK cells expressing human CD22, COS-7 supernatant, OD 655 nm
[3] = target: T1, human CD22 expressed on the cell surface; assay: BHK-CD22 cell ELISA
[4] = target: T1, human CD22 expressed on the cell surface; assay: cell ELISA on BHK cells expressing human CD22, goat anti-mouse Ig-HRP, OD 450 nm
Description: The BHK-CD22 binding assay was used to test the binding activity of the chHB227 antibody in the transiently transformed COS 7 culture supernatants. A goat anti-human Ig-HRP conjugate (Sigma Chemicals) was used to detect binding of chHB22.7 mAb while a goat anti-mouse Ig-HRP conjugate (Southern Biotechnology) was used to detect binding of the parental mouse HB22.7 mAb. The bound HRP conjugates were exposed to the substrate o-phenyldiamine (OPD) and the resulting products detected at 450 nm.

Binder | EC50 (read off the curve) [2] | also measured
chimeric HB22.7 antibody chHB227 (chH + chL) (antibody, human IgG1, V domains shown, Mouse HB22.7 variable regions on human IgG1 and kappa constant regions (vectors pG1D20, pKN10); Transient COS-7 supernatant; also called CH+CK; fully chimeric antibody) VH: QVQLKESGPGLVAPSQSLSITCTVSGFSLSDYGVNWVRQIPGKGLEWLGIIWGDGRTDYNSALKSRLNISKDNSKSQVFLKMNSLKADDTARYYCARAPGNRAMEYWGQGTSVTVS VL: SIVMTQTPKFLLVSAGDRITLTCKASQSVTNDVAWYQQKPGQSPKLLIYYASNRYTGVPDRFTGSGYGTDFTFTISTVQAEDLAVYFCQQDYRSPWTFGGGTKLEI | ~0.1 µg/mL | EC50 (read off the curve) [1]: ~0.3 µg/mL
HB227RHC heavy chain + chimeric HB22.7 light chain (chL) (antibody, human IgG1, V domains shown, Human IgG1/kappa constants; COS-7 supernatant; also called RHC+chL) VH: QVQLQESGPALVKPTQTLTLTCTFSGFSLSDYGVNWIRQPPGKALEWLGIIWGDGRTDYNSALKSRLSISKDNSKNQVVLRMTNVDPVDTATYFCARAPGNRAMEYWGQGTVVTVSS VL: SIVMTQTPKFLLVSAGDRITLTCKASQSVTNDVAWYQQKPGQSPKLLIYYASNRYTGVPDRFTGSGYGTDFTFTISTVQAEDLAVYFCQQDYRSPWTFGGGTKLEI | – | fold binding relative to chimeric light chain with HB227RHB [3]: ~2 fold
HB227RHF heavy chain + chimeric HB22.7 light chain (chL) (antibody, human IgG1, V domains shown, Human IgG1/kappa constants; COS-7 supernatant; also called HB227RHF+chL; RHF+chL) VH: QVQLQESGPALVKPTQTLTLTCTVSGFSLSDYGVNWIRQPPGKALEWLGIIWGDGRTDYNSALKSRLSISKDNSKNQVVLRMTNVDPVDTATYFCARAPGNRAMEYWGQGTVVTVSS VL: SIVMTQTPKFLLVSAGDRITLTCKASQSVTNDVAWYQQKPGQSPKLLIYYASNRYTGVPDRFTGSGYGTDFTFTISTVQAEDLAVYFCQQDYRSPWTFGGGTKLEI | ~0.1 µg/mL | –
humanized antibody HB227RHF + HB227RKC (antibody, human IgG1, V domains shown, Human IgG1/kappa constants; COS-7 supernatant; also called RHF+RKC; humanized (RHF+RKC) antibody) VH: QVQLQESGPALVKPTQTLTLTCTVSGFSLSDYGVNWIRQPPGKALEWLGIIWGDGRTDYNSALKSRLSISKDNSKNQVVLRMTNVDPVDTATYFCARAPGNRAMEYWGQGTVVTVSS VL: DIVMTQSPSSLSASVGDRVTITCKASQSVTNDVAWYQQKPGKAPKLLIYYASNRYTGVPDRFSGSGYGTDFTLTISSLQPEDFATYFCQQDYRSPWTFGGGTKVEIKR | ~0.2 µg/mL | –
parental mouse monoclonal anti-CD22 antibody HB22.7 (antibody, V domains shown, Mouse hybridoma antibody (ATCC HB11347); Labelled with Alexa-fluor 488 or 647 in some cell assays; also called murine HB22.7; mouse HB22.7) VH: QVQLKESGPGLVAPSQSLSITCTVSGFSLSDYGVNWVRQIPGKGLEWLGIIWGDGRTDYNSALKSRLNISKDNSKSQVFLKMNSLKADDTARYYCARAPGNRAMEYWGQGTSVTVS VL: SIVMTQTPKFLLVSAGDRITLTCKASQSVTNDVAWYQQKPGQSPKLLIYYASNRYTGVPDRFTGSGYGTDFTFTISTVQAEDLAVYFCQQDYRSPWTFGGGTKLEI | – | EC50 (read off the curve) [4]: ~0.08 µg/mL
